From US20240123029A1 (HUMANITAS MIRASOLE S P A, published 2024)

Target: T1, SARS-CoV-2 S1 protein, His Tag (SARS-CoV-2, UniProt P0DTC2 16-685)
T1 construct: domain: S1; Bought
Assay: ELISA, His-tagged viral protein captured on nickel plates (6.25-50 pmol/mL)

B1: Purified C-reactive protein (CRP) (other)
chain: QTDMSRKAFVFPKESDTSYVSLKAPLTKPLKAFTVCLHFYTELSSTRGYSIFSYATKRQDNEILIFWSKDIGYSFTVGGSEILFEVPEVTVAPVHICTSWESASGIVEFWVDGKPRVRKSLKKGYTVGAEASIILGQEQDSFGGNFEGSQSLVGDIGNVNMWDFVLSPDEINTIYLGGPFSPNVLNWRALKYEVQGEVFTKPQLWP
  binding result: no binding (tested: CRP 3 µg/mL)
